The experiment addresses CPXV14-His (His-tagged recombinant cowpox virus Brighton Red CPXV14) (cowpox virus (Brighton Red strain)). Description: BLI; […] (10 μg/mL, 2 min), […]; PBS pH 7.4, 0.005% Tween-20; 25°C; steady-state fit, 1:1 binding model; […].

pKd: −log10 of the molar value.

In the case of “soluble recombinant murine FcγRIIB (mCD32B) ectodomain (from UniProt P08101 30-210) (receptor)”, the pKd is 8.44.

The pKd is the Kd on a negative log10 scale, so that one unit is a factor of ten.

These data come from article PMC9521928.
